Here are results for four molecules from article PMC11919693, “Structural basis of the mechanism and inhibition of a human ceramide synthase” (Nature Structural & Molecular Biology, 2024).

Data set [1] deals with the molecule itself. The data set is described as follows: cryo-EM structure; CerS6 dimer mixed with a 1.5x molar excess of nanobody (Nb22 or Nb02), 1 h on ice, complex purified by SEC in GDN, 5 mg/ml; the CerS6–Nb22 complex also after incubation with 120 µM FB1; C2 symmetry imposed. (In general: In gel filtration, larger molecules generally elute earlier.)
The target of data set [2] is human ceramide synthase 6 (CerS6), truncated at Asp350 (Met1-Asp350) (human) (UniProt Q6ZMG9). Described as above.
The target of data set [3] is T1, biotinylated C-terminally Avi-tagged human CerS6 (Homo sapiens, biotin on the Avi tag (in vitro, BirA)).
T1 construct: Ceramide synthase 6 (CerS6), Homo sapiens, UniProt Q6ZMG9; A Gly-Gly-Gly-Ser linker stands between CerS6 and the Avi tag, which lies upstream of the TEV cleavage site; also called biotinylated CerS6; Avi-tagged CerS6; not shown: Avi, C-terminal, kept; 10xHis, C-terminal, cleaved; Twin-Strep, C-terminal, cleaved
T1 chain: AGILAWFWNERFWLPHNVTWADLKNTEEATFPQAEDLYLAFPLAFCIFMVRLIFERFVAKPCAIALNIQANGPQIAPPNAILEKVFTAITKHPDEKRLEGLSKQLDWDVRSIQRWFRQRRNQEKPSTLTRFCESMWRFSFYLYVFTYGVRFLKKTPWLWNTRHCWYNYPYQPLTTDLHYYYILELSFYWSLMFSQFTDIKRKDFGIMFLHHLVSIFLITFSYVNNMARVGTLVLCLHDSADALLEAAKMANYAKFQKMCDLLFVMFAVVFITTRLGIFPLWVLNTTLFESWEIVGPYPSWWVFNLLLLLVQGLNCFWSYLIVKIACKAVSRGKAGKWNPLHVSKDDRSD
In words: BLI; Octet Red 384, Streptavidin SA biosensors loaded with 40 µg/ml biotinylated CerS6, SEC buffer with 0.003% LMNG and 0.0003% CHS; screen of unique nanobodies for slow off rates. Particulars: both partners purified. A general note: BLI is a label-free optical method that tracks binding on a fibre tip over time.

Data set [4] is described as follows: denaturing intact protein MS. Particulars: glycan lost; control: wild-type CerS6 (Met1-Asp350).

What is called stoichiometry N is the number of molecules, sites or subunits per partner or assembly.

B1: human ceramide synthase 6 (CerS6), truncated at Asp350 (Met1-Asp350) (enzyme, UniProt Q6ZMG9-2 1-350, looked up)
chain: MAGILAWFWNERFWLPHNVTWADLKNTEEATFPQAEDLYLAFPLAFCIFMVRLIFERFVAKPCAIALNIQANGPQIAPPNAILEKVFTAITKHPDEKRLEGLSKQLDWDVRSIQRWFRQRRNQEKPSTLTRFCESMWRFSFYLYVFTYGVRFLKKTPWLWNTRHCWYNYPYQPLTTDLHYYYILELSFYWSLMFSQFTDIKRKDFGIMFLHHLVSIFLITFSYVNNMARVGTLVLCLHDSADALLEAAKMANYAKFQKMCDLLFVMFAVVFITTRLGIFPLWVLNTTLFESWEIVGPYPSWWVFNLLLLLVQGLNCFWSYLIVKIACKAVSRGKAGKWNPLHVSKDDRSD
modifications: palmitoyl (C16:0) chain covalently attached to His211 (covalent intermediate state; transferred to FB1 in the N-palmitoyl FB1-bound state); N-linked glycan on Asn18; loss of the initiator methionine and acetylation of the new N terminus
notes: Ceramide synthase 6 (CerS6), Homo sapiens, UniProt Q6ZMG9, residues Met1-Asp350; C terminus predicted to be disordered removed; Purified as a mixture of monomer and dimer; the dimer SEC peak was used for the nanobody complexes and cryo-EM; also called acyl–CerS6; palmitoyl–CerS6; not shown: 10xHis, C-terminal, cleaved; Twin-Strep, C-terminal, cleaved
Consider B1, for which, in data set [1], the “stoichiometry N” value stood at 2.

B2: nanobody 22 (Nb22), anti-CerS6 camelid nanobody (VHH)
VHH: QVQLVESGGGLVQAEGSLRLSCAASGRTFRTYGMGWFRQAPGKEREFVAALNWSGSSTYYADSVKGRFTISRDNAKNTAYLQMNSLKPEDTAVYYCAALRRKAEYGSRSIADFDSWSKGTPVTVSS
notes: alpaca nanobody raised against CerS6 proteoliposomes; its chain is in the deposited models PDB 8QZ6 and 8QZ7 (residues 1-124 modelled); source: WK6 cells, purified from periplasmic extracts (Ni2+-NTA)
For B2, in data set [2], the stoichiometry N was found to be 1 per monomer. The binding result in data set [3] is “binds”.

B3: CerS6: N18Q (protein)
parent chain: MAGILAWFWNERFWLPHNVTWADLKNTEEATFPQAEDLYLAFPLAFCIFMVRLIFERFVAKPCAIALNIQANGPQIAPPNAILEKVFTAITKHPDEKRLEGLSKQLDWDVRSIQRWFRQRRNQEKPSTLTRFCESMWRFSFYLYVFTYGVRFLKKTPWLWNTRHCWYNYPYQPLTTDLHYYYILELSFYWSLMFSQFTDIKRKDFGIMFLHHLVSIFLITFSYVNNMARVGTLVLCLHDSADALLEAAKMANYAKFQKMCDLLFVMFAVVFITTRLGIFPLWVLNTTLFESWEIVGPYPSWWVFNLLLLLVQGLNCFWSYLIVKIACKAVSRGKVSKDDRSDIESSSDEEDSEPPGKNPHTATTTNGTSGTNGYLLTGSCSMDD
For B3, in data set [4], the “other: presence of covalent palmitoyl-enzyme adduct, other: adduct mass shift” value is “no change, +239.80 vs +238.45”.

B4: nanobody 02 (Nb02), anti-CerS6 camelid nanobody (VHH)
VHH: QLQFVESGGGLVQAGGSLRLSCAASGRTFSRYAVGWFRQAPGKEREFVASITWNGATTYYADSVKGRFTISRDNAKNTVYLQMNSLKPEDTAVYYCALDLYSYGTRDVADFGSWGKGTRVTVSS
notes: alpaca nanobody raised against CerS6 proteoliposomes; its chain is in the deposited model PDB 9EOT (residues 1-123 modelled); source: WK6 cells, purified from periplasmic extracts (Ni2+-NTA)
Turning to B4, the stoichiometry N in data set [2] is 1. Besides, the binding result in data set [3] was “binds”.
